Assay results taken from patent US10487121B2, “D-peptide inhibitors of HIV entry and methods of use” (priority 2016, dated 2019).
Read-outs that look alike come from different tables or passages of the source.

Assay: Rodent pharmacokinetics of PIE12-trimer and conjugates (Table 3 protocol)
Type: in vivo, Sprague Dawley rats
Conditions: rats; for bioavailability: Sprague Dawley; for bioavailability / AUC(0-inf) / C0 / clearance / half-life / Vd / Cmax / Tmax: rat; for AUC(0-inf) / C0 / clearance / half-life / Vd / Cmax / Tmax: in vivo; for clearance: read-out: Cl (obs) (converted); for half-life: read-out: T1/2 (converted); for Vd: read-out: Vz (obs)
Method: At each timepoint, plasma was obtained using lithium heparin.
Samples were spiked with an internal standard then precipitated with two volumes of 98% acetonitrile/2% Formic acid. Supernatants were analyzed by LC/MS/MS using an Agilent HPLC system (Waters X-Bridge BEH C18 column) paired to an AB Sciex API 3000 triple-quad mass spectrometer using MRM methods. Lipid conjugates required lower source temperatures (300° C. vs 500° C.) for improved reproducibility.

Row | SMILES | bioavailability (SC, 1.0 mg/kg, plasma, median) [%] | AUC(0-inf) (IV, 1.0 mg/kg, plasma, median) [µM·h] | C0 (IV, 1.0 mg/kg, plasma, median) [nM] | clearance (IV, 1.0 mg/kg, plasma, median) [mL/min/kg] | half-life (IV, 1.0 mg/kg, plasma, median) [h] | Vd (IV, 1.0 mg/kg, plasma, median) [L/kg] | AUC(0-inf) (SC, 1.0 mg/kg, plasma, median) [µM·h] | Cmax (SC, 1.0 mg/kg, plasma, median) [nM] | Tmax (SC, 1.0 mg/kg, plasma, median) [h] | half-life (SC, 1.0 mg/kg, plasma, median) [h] | further results
1 | CCCCCCCCCCCCCCCCSC1CC(=O)N(CCC(=O)NCCOCCOCCOCCOCCOCCOCCOCCOCCOCCOCCOCCOCCOCCOCCOCCOCCOCCOCCOCCOCCOCCOCCOCCOCCC(=O)NC(COCCC(=O)NCCOCCOCCOCCOCCC(=O)NCCCC[C@@H](NC(=O)CNC(=O)[C@@H](CC(C)C)NC(=O)[C@@H](CCC(=O)O)NC(=O)[C@H]2CSSC[C@@H](NC(=O)[C@H]3CCCN3C(=O)[C@@H](Cc3c[nH]cn3)NC(C)=O)C(=O)N[C@H](CC(=O)O)C(=O)N[C@H](Cc3ccc(O)cc3)C(=O)N3CCC[C@@H]3C(=O)N[C@H](CCC(=O)O)C(=O)N[C@H](Cc3c[nH]c4ccccc34)C(=O)N[C@H](CCC(N)=O)C(=O)N[C@H](Cc3c[nH]c4ccccc34)C(=O)N[C@H](CC(C)C)C(=O)N2)C(N)=O)(COCCC(=O)NCCOCCOCCOCCOCCC(=O)NCCCC[C@@H](NC(=O)CNC(=O)[C@@H](CC(C)C)NC(=O)[C@@H](CCC(=O)O)NC(=O)[C@H]2CSSC[C@@H](NC(=O)[C@H]3CCCN3C(=O)[C@@H](Cc3c[nH]cn3)NC(C)=O)C(=O)N[C@H](CC(=O)O)C(=O)N[C@H](Cc3ccc(O)cc3)C(=O)N3CCC[C@@H]3C(=O)N[C@H](CCC(=O)O)C(=O)N[C@H](Cc3c[nH]c4ccccc34)C(=O)N[C@H](CCC(N)=O)C(=O)N[C@H](Cc3c[nH]c4ccccc34)C(=O)N[C@H](CC(C)C)C(=O)N2)C(N)=O)COCCC(=O)NCCOCCOCCOCCOCCC(=O)NCCCC[C@@H](NC(=O)CNC(=O)[C@@H](CC(C)C)NC(=O)[C@@H](CCC(=O)O)NC(=O)[C@H]2CSSC[C@@H](NC(=O)[C@H]3CCCN3C(=O)[C@@H](Cc3c[nH]cn3)NC(C)=O)C(=O)N[C@H](CC(=O)O)C(=O)N[C@H](Cc3ccc(O)cc3)C(=O)N3CCC[C@@H]3C(=O)N[C@H](CCC(=O)O)C(=O)N[C@H](Cc3c[nH]c4ccccc34)C(=O)N[C@H](CCC(N)=O)C(=O)N[C@H](Cc3c[nH]c4ccccc34)C(=O)N[C@H](CC(C)C)C(=O)N2)C(N)=O)C1=O (stereo partly shown) [C16-PIE12-Trimer] | 38 | 1.16 | 1880 | 1.67 | 0.93 | 0.14 | 0.442 | 192 | 1 | 1.18 | 
2 | CCCCCCCCCCCCCCCCCCSC1CC(=O)N(CCC(=O)NCCOCCOCCOCCOCCOCCOCCOCCOCCOCCOCCOCCOCCOCCOCCOCCOCCOCCOCCOCCOCCOCCOCCOCCOCCC(=O)NC(COCCC(=O)NCCOCCOCCOCCOCCC(=O)NCCCC[C@@H](NC(=O)CNC(=O)[C@@H](CC(C)C)NC(=O)[C@@H](CCC(=O)O)NC(=O)[C@H]2CSSC[C@@H](NC(=O)[C@H]3CCCN3C(=O)[C@@H](Cc3c[nH]cn3)NC(C)=O)C(=O)N[C@H](CC(=O)O)C(=O)N[C@H](Cc3ccc(O)cc3)C(=O)N3CCC[C@@H]3C(=O)N[C@H](CCC(=O)O)C(=O)N[C@H](Cc3c[nH]c4ccccc34)C(=O)N[C@H](CCC(N)=O)C(=O)N[C@H](Cc3c[nH]c4ccccc34)C(=O)N[C@H](CC(C)C)C(=O)N2)C(N)=O)(COCCC(=O)NCCOCCOCCOCCOCCC(=O)NCCCC[C@@H](NC(=O)CNC(=O)[C@@H](CC(C)C)NC(=O)[C@@H](CCC(=O)O)NC(=O)[C@H]2CSSC[C@@H](NC(=O)[C@H]3CCCN3C(=O)[C@@H](Cc3c[nH]cn3)NC(C)=O)C(=O)N[C@H](CC(=O)O)C(=O)N[C@H](Cc3ccc(O)cc3)C(=O)N3CCC[C@@H]3C(=O)N[C@H](CCC(=O)O)C(=O)N[C@H](Cc3c[nH]c4ccccc34)C(=O)N[C@H](CCC(N)=O)C(=O)N[C@H](Cc3c[nH]c4ccccc34)C(=O)N[C@H](CC(C)C)C(=O)N2)C(N)=O)COCCC(=O)NCCOCCOCCOCCOCCC(=O)NCCCC[C@@H](NC(=O)CNC(=O)[C@@H](CC(C)C)NC(=O)[C@@H](CCC(=O)O)NC(=O)[C@H]2CSSC[C@@H](NC(=O)[C@H]3CCCN3C(=O)[C@@H](Cc3c[nH]cn3)NC(C)=O)C(=O)N[C@H](CC(=O)O)C(=O)N[C@H](Cc3ccc(O)cc3)C(=O)N3CCC[C@@H]3C(=O)N[C@H](CCC(=O)O)C(=O)N[C@H](Cc3c[nH]c4ccccc34)C(=O)N[C@H](CCC(N)=O)C(=O)N[C@H](Cc3c[nH]c4ccccc34)C(=O)N[C@H](CC(C)C)C(=O)N2)C(N)=O)C1=O (stereo partly shown) [C18-PIE12-trimer] | 93 | 0.766 | 900 | 2.5 | 1.05 | 0.23 | 0.713 | 196 | 2 | 1.39 | 
3 | CCCCCCCCCCCCCCCC(=O)N[C@H](CSC1CC(=O)N(CCC(=O)NCCOCCOCCOCCOCCOCCOCCOCCOCCOCCOCCOCCOCCOCCOCCOCCOCCOCCOCCOCCOCCOCCOCCOCCOCCC(=O)NC(COCCC(=O)NCCOCCOCCOCCOCCC(=O)NCCCC[C@@H](NC(=O)CNC(=O)[C@@H](CC(C)C)NC(=O)[C@@H](CCC(=O)O)NC(=O)[C@H]2CSSC[C@@H](NC(=O)[C@H]3CCCN3C(=O)[C@@H](Cc3c[nH]cn3)NC(C)=O)C(=O)N[C@H](CC(=O)O)C(=O)N[C@H](Cc3ccc(O)cc3)C(=O)N3CCC[C@@H]3C(=O)N[C@H](CCC(=O)O)C(=O)N[C@H](Cc3c[nH]c4ccccc34)C(=O)N[C@H](CCC(N)=O)C(=O)N[C@H](Cc3c[nH]c4ccccc34)C(=O)N[C@H](CC(C)C)C(=O)N2)C(N)=O)(COCCC(=O)NCCOCCOCCOCCOCCC(=O)NCCCC[C@@H](NC(=O)CNC(=O)[C@@H](CC(C)C)NC(=O)[C@@H](CCC(=O)O)NC(=O)[C@H]2CSSC[C@@H](NC(=O)[C@H]3CCCN3C(=O)[C@@H](Cc3c[nH]cn3)NC(C)=O)C(=O)N[C@H](CC(=O)O)C(=O)N[C@H](Cc3ccc(O)cc3)C(=O)N3CCC[C@@H]3C(=O)N[C@H](CCC(=O)O)C(=O)N[C@H](Cc3c[nH]c4ccccc34)C(=O)N[C@H](CCC(N)=O)C(=O)N[C@H](Cc3c[nH]c4ccccc34)C(=O)N[C@H](CC(C)C)C(=O)N2)C(N)=O)COCCC(=O)NCCOCCOCCOCCOCCC(=O)NCCCC[C@@H](NC(=O)CNC(=O)[C@@H](CC(C)C)NC(=O)[C@@H](CCC(=O)O)NC(=O)[C@H]2CSSC[C@@H](NC(=O)[C@H]3CCCN3C(=O)[C@@H](Cc3c[nH]cn3)NC(C)=O)C(=O)N[C@H](CC(=O)O)C(=O)N[C@H](Cc3ccc(O)cc3)C(=O)N3CCC[C@@H]3C(=O)N[C@H](CCC(=O)O)C(=O)N[C@H](Cc3c[nH]c4ccccc34)C(=O)N[C@H](CCC(N)=O)C(=O)N[C@H](Cc3c[nH]c4ccccc34)C(=O)N[C@H](CC(C)C)C(=O)N2)C(N)=O)C1=O)C(=O)O (stereo partly shown) [Palm-PIE12-trimer] |  |  |  |  |  |  |  |  |  |  | AUC(0-inf) (IV, 1.2 mg/kg, plasma, median): 2.24 µM·h; C0 (IV, 1.2 mg/kg, plasma, median): 2240 nM; clearance (IV, 1.2 mg/kg, plasma, median): 1.02 mL/min/kg; half-life (IV, 1.2 mg/kg, plasma, median): 1.83 h; Vd (IV, 1.2 mg/kg, plasma, median): 0.14 L/kg; AUC(0-inf) (SC, 1.2 mg/kg, plasma, median): 2.31 µM·h; Cmax (SC, 1.2 mg/kg, plasma, median): 585 nM; Tmax (SC, 1.2 mg/kg, plasma, median): 1 h; half-life (SC, 1.2 mg/kg, plasma, median): 2.23 h; increase of IV half-life vs PIE12-trimer (IV): > 3 fold; reduction of clearance vs PIE12-trimer (IV): ~14 fold; bioavailability upon SC dosing, in words (SC): fully bioavailable; F (SC, 1.2 mg/kg, plasma, median): 103%; extension of SC (apparent) half-life vs PIE12-trimer (SC, terminal phase elimination): ~3 fold
